Where “and” joins values, the source holds several entries; their conditions need not be identical. Identical values can stand only once.
Experiments:
[1] = target: T1, huntingtin exon 1-thioredoxin (TRX) fusion protein with 39 glutamines (Homo sapiens, UniProt P42858, strain); assay: SEC
[2] = target: T2, huntingtin exon 1-thioredoxin (TRX) fusion protein with 16 glutamines (Homo sapiens, UniProt P42858, strain); assay: SEC-MALS
[3] = target: T1, huntingtin exon 1-thioredoxin (TRX) …; assay: SEC-MALS
[4] = target: T2, huntingtin exon 1-thioredoxin (TRX) …; assay: small angle X-ray scattering

T1 sequence (P42858 whole entry, looked up, change not shown, the tested form may be a part): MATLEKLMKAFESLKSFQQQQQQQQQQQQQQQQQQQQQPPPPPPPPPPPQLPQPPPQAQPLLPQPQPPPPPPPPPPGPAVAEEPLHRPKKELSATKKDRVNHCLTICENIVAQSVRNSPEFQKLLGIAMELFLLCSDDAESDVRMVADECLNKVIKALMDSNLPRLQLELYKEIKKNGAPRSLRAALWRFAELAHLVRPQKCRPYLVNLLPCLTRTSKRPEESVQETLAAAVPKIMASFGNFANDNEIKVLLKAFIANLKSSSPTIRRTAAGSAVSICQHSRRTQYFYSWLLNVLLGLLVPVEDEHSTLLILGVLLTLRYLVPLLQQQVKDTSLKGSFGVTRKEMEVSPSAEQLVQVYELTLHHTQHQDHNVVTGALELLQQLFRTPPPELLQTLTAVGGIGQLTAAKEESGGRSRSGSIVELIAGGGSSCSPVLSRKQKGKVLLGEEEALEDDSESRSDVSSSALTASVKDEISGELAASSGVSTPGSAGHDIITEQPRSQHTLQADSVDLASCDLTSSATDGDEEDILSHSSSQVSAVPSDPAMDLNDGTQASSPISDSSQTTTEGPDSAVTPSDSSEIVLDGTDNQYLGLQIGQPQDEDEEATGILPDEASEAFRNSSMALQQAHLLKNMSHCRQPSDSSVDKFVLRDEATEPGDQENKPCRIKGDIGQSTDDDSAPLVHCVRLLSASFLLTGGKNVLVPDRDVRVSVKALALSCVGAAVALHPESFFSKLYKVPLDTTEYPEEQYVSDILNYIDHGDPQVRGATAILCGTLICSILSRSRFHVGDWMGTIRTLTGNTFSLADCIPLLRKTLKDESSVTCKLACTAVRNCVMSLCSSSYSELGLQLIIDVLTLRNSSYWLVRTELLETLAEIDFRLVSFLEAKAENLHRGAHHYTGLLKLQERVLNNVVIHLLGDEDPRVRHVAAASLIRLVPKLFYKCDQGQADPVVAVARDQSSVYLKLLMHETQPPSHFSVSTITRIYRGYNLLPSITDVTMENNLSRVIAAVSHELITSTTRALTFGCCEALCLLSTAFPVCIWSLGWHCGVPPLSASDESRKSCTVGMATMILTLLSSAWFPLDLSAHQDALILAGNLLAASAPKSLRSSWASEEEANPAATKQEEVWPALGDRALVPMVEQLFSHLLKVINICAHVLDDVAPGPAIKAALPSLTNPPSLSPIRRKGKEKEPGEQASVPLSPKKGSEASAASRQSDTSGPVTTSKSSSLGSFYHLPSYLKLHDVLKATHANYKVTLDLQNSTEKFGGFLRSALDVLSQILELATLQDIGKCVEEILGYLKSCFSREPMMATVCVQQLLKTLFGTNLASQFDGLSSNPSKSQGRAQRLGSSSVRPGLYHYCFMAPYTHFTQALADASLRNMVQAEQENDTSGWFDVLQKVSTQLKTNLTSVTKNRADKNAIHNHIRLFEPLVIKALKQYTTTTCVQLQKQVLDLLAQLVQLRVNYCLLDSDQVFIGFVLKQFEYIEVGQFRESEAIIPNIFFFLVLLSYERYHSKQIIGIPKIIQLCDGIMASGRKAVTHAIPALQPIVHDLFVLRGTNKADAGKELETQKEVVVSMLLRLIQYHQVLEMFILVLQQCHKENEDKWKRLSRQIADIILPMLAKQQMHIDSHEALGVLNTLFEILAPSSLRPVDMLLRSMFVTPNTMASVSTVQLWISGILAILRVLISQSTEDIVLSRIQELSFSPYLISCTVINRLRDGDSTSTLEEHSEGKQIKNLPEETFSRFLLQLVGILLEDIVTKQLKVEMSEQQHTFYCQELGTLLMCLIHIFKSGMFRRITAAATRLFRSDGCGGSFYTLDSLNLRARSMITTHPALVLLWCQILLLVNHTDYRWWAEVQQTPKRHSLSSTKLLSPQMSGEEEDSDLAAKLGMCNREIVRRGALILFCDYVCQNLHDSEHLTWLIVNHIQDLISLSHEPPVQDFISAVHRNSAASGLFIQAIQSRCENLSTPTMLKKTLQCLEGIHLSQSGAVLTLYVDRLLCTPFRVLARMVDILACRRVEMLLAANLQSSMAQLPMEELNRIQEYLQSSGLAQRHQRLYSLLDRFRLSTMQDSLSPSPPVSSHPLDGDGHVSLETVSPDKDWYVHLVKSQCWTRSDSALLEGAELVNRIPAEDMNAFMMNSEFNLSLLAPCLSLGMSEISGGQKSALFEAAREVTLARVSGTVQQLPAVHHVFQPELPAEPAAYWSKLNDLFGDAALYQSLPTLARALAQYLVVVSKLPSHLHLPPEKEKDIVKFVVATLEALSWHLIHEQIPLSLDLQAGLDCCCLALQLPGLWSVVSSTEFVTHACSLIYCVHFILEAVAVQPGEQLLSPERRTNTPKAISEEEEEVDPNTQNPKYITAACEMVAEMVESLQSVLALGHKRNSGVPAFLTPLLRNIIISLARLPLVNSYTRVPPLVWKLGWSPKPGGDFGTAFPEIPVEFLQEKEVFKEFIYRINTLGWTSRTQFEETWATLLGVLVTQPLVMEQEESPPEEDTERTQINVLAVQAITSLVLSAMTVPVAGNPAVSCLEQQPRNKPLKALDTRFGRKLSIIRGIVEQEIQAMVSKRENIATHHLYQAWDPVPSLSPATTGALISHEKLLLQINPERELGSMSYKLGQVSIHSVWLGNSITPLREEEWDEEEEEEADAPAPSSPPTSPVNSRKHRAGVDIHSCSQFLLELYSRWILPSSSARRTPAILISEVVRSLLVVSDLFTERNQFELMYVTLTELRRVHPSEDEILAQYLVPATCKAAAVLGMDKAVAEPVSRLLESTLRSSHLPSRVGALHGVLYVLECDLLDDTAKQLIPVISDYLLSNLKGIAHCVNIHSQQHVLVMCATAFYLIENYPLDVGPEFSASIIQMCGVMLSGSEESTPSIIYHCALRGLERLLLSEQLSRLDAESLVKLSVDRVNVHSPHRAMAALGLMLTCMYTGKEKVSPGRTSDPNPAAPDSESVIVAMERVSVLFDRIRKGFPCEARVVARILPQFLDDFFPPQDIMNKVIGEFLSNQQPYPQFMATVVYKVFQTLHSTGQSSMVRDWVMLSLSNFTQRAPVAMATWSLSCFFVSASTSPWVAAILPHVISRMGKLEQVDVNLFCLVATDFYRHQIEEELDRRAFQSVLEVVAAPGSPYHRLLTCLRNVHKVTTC
T2 sequence (P42858 whole entry, looked up, change not shown, the tested form may be a part): as above

B1: 3B5H10 Fab (Fab, V domains shown)
VH: QIQLVQSGPELKKPGETVKISCKASGYTFTTYGMSWVKQAPGKGFEWMGWINTYSGVPTYVDDFKGRFAFSLETSASTAYLQINNLKNEDTAVYFCARGGDNYLWFAYWGQGTLVTVSA
VL: QLVLTQSSSASFSLGASAKLTCTLNSQHSTYTIEWYQQQPLKPPKYVMELKKDGSHSTGDGIPDRFSGSSSGADRYLSISNIQPEDEAIYICGVGDTIKEQFVYVFGGGTKVTVL
[1]
  N at 5 μM 3B5H10 Fab in the equilibration buffer (ratio with flat baseline): ~2.6 Fab:HD-39Q
  stoichiometry N: 3 Fab:HD-39Q
[2]
  stoichiometry N: 1 3B5H10 Fab:HD-16Q
[3]
  stoichiometry N: > 1 3B5H10 Fab:HD-39Q and < 2 3B5H10 Fab:HD-39Q
[4]
  stoichiometry N: 1 Fab:HD-16Q
